Among the data in patent publication US20230250135A1 are variation in antibody binding relative to reference UFV172561 values, retold here.

The target of the experiment is trimeric stem polypeptides with H7 like residues at the beta2/beta3 loop, A-helix and lower part of the stem (FIG. 13A). In words: Binding-AlphaLISA, Expi293F supernatant, normalized to UFV172561. Background: In Alpha technology, singlet oxygen from a donor bead excites a nearby acceptor bead.

CR9114 (antibody), sequence (VH): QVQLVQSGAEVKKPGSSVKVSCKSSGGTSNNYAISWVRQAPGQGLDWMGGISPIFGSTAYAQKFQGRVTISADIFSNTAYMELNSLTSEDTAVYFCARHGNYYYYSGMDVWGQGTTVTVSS
CR9114 (antibody), sequence (VL): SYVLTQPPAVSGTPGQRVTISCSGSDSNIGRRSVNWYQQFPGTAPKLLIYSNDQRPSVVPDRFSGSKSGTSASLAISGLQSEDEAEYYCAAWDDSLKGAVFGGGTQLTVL

In turn, CR9114 (antibody) yielded a variation in antibody binding relative to reference UFV172561 of 20%.
